Consider 2 substances from paper PMC3428623.

In this assay the target is Pbs2-HKMT (S. cerevisiae) (UniProt P08018). Briefly: proximity labelling.
Pbs2-HKMT (S. cerevisiae), sequence (P08018 whole entry): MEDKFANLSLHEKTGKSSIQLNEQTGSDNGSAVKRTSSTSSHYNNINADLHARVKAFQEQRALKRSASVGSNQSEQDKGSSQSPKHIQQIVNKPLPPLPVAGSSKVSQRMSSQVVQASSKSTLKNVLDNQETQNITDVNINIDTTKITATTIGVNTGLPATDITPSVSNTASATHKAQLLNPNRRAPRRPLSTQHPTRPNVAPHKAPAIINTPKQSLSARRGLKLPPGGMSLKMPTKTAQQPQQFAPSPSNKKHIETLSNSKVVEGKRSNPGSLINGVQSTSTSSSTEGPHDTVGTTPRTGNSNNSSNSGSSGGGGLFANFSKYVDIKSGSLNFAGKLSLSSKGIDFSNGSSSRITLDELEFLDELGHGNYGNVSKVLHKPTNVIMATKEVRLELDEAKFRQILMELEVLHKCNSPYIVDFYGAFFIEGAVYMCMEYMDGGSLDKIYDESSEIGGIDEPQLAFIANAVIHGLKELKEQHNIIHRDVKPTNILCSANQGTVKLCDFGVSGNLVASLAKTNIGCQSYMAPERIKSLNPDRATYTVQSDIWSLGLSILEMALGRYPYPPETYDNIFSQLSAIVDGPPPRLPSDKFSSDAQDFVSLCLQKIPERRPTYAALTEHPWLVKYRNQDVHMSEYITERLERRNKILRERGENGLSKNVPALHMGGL

In the case of Sho1-H3-HA Y8A mutant (natural protein), the percent reduction in methylation signal in comparison with wild-type Sho1 is 70%.
Under “Sho1-H3-HA Y54M mutant (natural protein)” stands 92%.
